According to patent publication US20250296959A1, “B7-H3 TARGETING PEPTIDES AND CONSTRUCTS THEREOF” (Mariana Oncology Inc., priority 2024, published 2025):
Read-outs that look alike come from different tables or passages of the source. Starred links: 1 amine or outer side, 2 acyl side, 3 side chain; linkers in the order of their positions; H or OH if unused. Positions of bridges follow the written chain, without caps; N, C: chain ends. Non-standard residues stand in square brackets, D forms with d. Residues, ends and D or L forms follow the SMILES beside them. Groups on a side chain read outwards from the residue. Primed or numbered codes have the meaning given here. *: point of attachment. (2S,3S)beta‑Me‑Phe = C[C@@H](c1ccccc1)[C@H](N[*:1])C(=O)[*:2]; (2S,3S)βMePhe = C[C@@H](c1ccccc1)[C@H](N[*:1])C(=O)[*:2]; DOTA = O=C(O)CN1CCN(CC(=O)O)CCN(CC(=O)*)CCN(CC(=O)O)CC1; PipAla = piperidinyl-alanine residue (as named); Trp(5-F) = N[C@@H](Cc1c[nH]c2ccc(F)cc12)C(=O)O; PEG4′ = 4x 3-(2-aminoethoxy)propanoic acid; γGlu = O=C(O)[C@H](CCC(=O)[*:2])N[*:1]; Ala(4-THP) = N[C@@H](CC1CCOCC1)C(=O)O; Val(3-OH) = CC(C)(O)[C@H](N)C(=O)O; Hyp = O=C(O)[C@@H]1C[C@@H](O)CN1; 4Pal = N[C@@H](Cc1ccncc1)C(=O)O; Tle = CC(C)(C)[C@H](N)C(=O)O; hLeu = CC(C)CC[C@H](N)C(=O)O; Pip = O=C(O)[C@@H]1CCCCN1; Nle = CCCC[C@H](N)C(=O)O

Assays:
Calu-6 cell line [1] = test: Cell associated (bound) fraction of [177Lu]Lu-labeled peptide in Calu-6 cells; type: cell-based, Human; details: 1 hour, 37° C.
Procedure, shortened: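 Peptide conjugate was labelled with [177Lu]LuCl3 in ammonium acetate pH ~5 at 80 °C for 17-20 min, with purity checked by RP-HPLC. Calu-6 suspensions (5 million cells/mL in 1% PBSA) were incubated with 0.8 μCi for 1 h at 37 °C. Cell pellets were gamma-counted after two cold PBS/BSA washes, giving the bound fraction against the unbound supernatant plus washes.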

Calu-6 cell line [2] = test: Net internalization of [177Lu]Lu-labeled peptide in Calu-6 cells; type: cell-based, Human; details: 1 hour, 37° C., glycine pH 2.5 acid wash
Procedure, shortened: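 Peptide conjugate labeled with [177Lu]LuCl3 at pH ~5, 80 °C, 17–20 min, and purity checked by RP-HPLC. B7-H3-expressing human Calu-6 lung cancer cells at 5 million cells/mL in 1% PBSA. Internalized fraction: counts left after two 3 min 50 mM glycine pH 2.5 washes and NaOH lysis, gamma counted against bound fraction.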

human 4lg B7-H3 = target: T1, human 4lg B7-H3 (Homo sapiens, UniProt Q5ZPR3); test: Affinity determination by surface plasmon resonance (SPR) to 4Ig B7-H3; details: 4Ig B7-H3
T1 sequence (Q5ZPR3 29-534): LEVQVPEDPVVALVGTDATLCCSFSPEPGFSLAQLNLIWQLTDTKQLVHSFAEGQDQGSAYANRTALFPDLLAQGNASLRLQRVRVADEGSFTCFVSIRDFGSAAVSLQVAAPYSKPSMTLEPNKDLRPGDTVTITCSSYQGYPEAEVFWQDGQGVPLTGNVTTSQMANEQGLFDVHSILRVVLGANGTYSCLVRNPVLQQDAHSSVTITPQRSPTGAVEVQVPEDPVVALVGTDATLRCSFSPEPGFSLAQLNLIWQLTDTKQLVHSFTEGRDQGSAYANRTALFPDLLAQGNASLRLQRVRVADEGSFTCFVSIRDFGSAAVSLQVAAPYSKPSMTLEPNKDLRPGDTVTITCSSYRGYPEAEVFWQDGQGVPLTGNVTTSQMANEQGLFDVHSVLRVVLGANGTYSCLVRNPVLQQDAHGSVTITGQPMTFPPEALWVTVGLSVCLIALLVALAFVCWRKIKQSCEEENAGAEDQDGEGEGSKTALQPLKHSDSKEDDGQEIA

4lg-B7-H3 = target: T2, 4lg-B7-H3 (Homo sapiens, UniProt Q5ZPR3, S143D); test: X-ray crystal structure of compound bound to 4lg-B7-H3
T2 sequence (Q5ZPR3 29-456 S143D): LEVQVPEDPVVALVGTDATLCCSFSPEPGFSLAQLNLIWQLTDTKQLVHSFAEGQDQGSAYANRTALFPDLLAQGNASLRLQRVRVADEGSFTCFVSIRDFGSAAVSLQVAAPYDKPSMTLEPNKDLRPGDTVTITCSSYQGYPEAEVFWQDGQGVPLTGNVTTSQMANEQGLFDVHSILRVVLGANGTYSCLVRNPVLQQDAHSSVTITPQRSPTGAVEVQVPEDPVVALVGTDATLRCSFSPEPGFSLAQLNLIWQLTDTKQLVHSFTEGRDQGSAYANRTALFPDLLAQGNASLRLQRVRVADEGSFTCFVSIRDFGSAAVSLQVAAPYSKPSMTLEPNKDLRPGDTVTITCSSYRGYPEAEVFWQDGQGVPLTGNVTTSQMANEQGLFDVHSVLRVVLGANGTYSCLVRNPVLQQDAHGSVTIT
Protocol: The x-ray crystal structure of an exemplary compound of the disclosure bound to 4lg-B7-H3 was determined. Suitable constructs for B^7H3 expression had been previously established by PROTEROS. Expression of B^7H3 was performed according to previously established protocols. A purification protocol was established and homogeneous protein was produced in preparative amounts. The protein was purified comprising affinity and gel filtration chromatography steps. This procedure yielded homogenous protein with a purity greater 95% as judged from Coomassie stained SDS-PAGE. A 4lg-B7-H3 sequence from amino acid 29-456 was employed. The following sequence corresponds to amino acids 1-534 of 4lg-B7-H3:
The purified protein was used in crystallization trials employing both, a standard screen with approximately 1200 different conditions, as well as crystallization conditions identified using literature data. Conditions initially obtained have been optimized using standard strategies, systematically varying parameters critically influencing crystallization, such as temperature, protein concentration, drop ratio, and others. These conditions were also refined by systematically varying pH or precipitant concentrations.
A cryo-protocol was established using PROTEROS Standard Protocols. Crystals have been flash-frozen and measured at a temperature of 100 K. The X-ray diffraction data have been collected from complex crystals of 4lg-B7-H3 with the ligand of Cpd #200 at the SWISS LIGHT SOURCE (SLS, Villigen, Switzerland) using cryogenic conditions. The crystals belong to space group P 61 2 2. Data were processed using the programs autoPROC, XDS and autoPROC, AIMLESS. […]
Subsequent model building and refinement was performed according to standard protocols with COOT and the software package CCP4, respectively. For the calculation of the free R-factor, a measure to cross-validate the correctness of the final model, about 4.8% of measured reflections were excluded from the refinement procedure (Table 27). […]

[3] = target: T3, Biotinylated human 4Ig B7-H3 (human, UniProt Q5ZPR3 29-461, limits assumed, biotinylated (site not stated)); test: SPR 25C; C = 10<KD<=100 nM
T3 construct: Protein captured on the SA chip for SPR; also called 4lg-B7-H3; B7-H3 isoform 4Ig
T3 sequence: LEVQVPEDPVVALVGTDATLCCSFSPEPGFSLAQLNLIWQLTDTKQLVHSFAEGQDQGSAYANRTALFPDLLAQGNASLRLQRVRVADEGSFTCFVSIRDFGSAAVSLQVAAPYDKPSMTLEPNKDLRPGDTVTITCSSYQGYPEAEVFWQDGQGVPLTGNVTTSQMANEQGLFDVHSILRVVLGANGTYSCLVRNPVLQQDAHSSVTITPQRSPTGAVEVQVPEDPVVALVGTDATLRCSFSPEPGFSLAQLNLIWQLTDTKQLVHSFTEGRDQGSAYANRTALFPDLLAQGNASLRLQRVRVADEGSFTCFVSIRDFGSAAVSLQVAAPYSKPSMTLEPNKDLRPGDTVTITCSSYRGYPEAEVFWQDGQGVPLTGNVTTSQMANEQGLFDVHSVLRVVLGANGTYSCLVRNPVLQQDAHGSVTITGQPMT

[4] = target: T3, Biotinylated human 4Ig B7-H3; test: SPR 25C; B = 1.0<KD<=10 nM
[5] = target: T3, Biotinylated human 4Ig B7-H3; test: SPR 37C; B = 1.0<KD<=10 nM
[6] = target: B7-H3 on Calu-6 cells (human) (UniProt Q5ZPR3); test: 177Lu-labelled peptide on Calu-6 cells, % cell associated fraction; C = >50%
[7] = target: Biotinylated human 4Ig B7-H3 (human) (UniProt Q5ZPR3); test: SPR 25C; A = KD<=1.0 nM
[8] = target: Biotinylated human 4Ig B7-H3 (human) (UniProt Q5ZPR3); test: SPR 37C; A = KD<=1.0 nM
[9] = target: T3, Biotinylated human 4Ig B7-H3; test: SPR 37C; D = 100<KD<=300 nM
2Ig B7-H3 = 2Ig B7-H3 (UniProt Q5ZPR3); test: SPR, 37C

In the case of CC(=O)N[C@@H](CCC(C)C)C(=O)N[C@@H](Cc1ccc(O)cc1)C(=O)N[C@H]1CSSC[C@@H](C(=O)N[C@@H](Cc2c[nH]c3ccc(F)cc23)C(=O)N[C@@H](Cc2ccccc2)C(=O)N[C@H](C(=O)N[C@H](CCCCNC(=O)CN2CCN(CC(=O)O)CCN(CC(=O)O)CCN(CC(=O)O)CC2)C(N)=O)[C@@H](C)O)NC(=O)[C@H](Cc2ccc(O)cc2)NC(=O)[C@H](C(C)C)NC(=O)[C@H](CC(=O)O)NC(=O)[C@H](CC2CCOCC2)NC(=O)[C@H](CCCCN)NC(=O)CNC(=O)[C@H](C(C)C)NC1=O [compound 200, Ac-hLeu-Y-C-V-G-K-ThpA-D-V-Y-C-5FW-F-Thr-dLys(DOTA)-CONH2] (Ac-[hLeu]YCVGK[Ala(4-THP)]DVYC[Trp(5-F)]FT[dK](DOTA)-NH2; disulfide 3-11), the “% cell associated fraction” value (Calu-6 cell line [1]) is reported as “C (%>50)”, the “% net internalization” value (Calu-6 cell line [2]) is reported as “A (%≤25)” and the Kd (human 4lg B7-H3; read-out: SPR KD—25° C., 25° C. flow cell temperature) is reported as under 0.001 µM. The Kd (human 4lg B7-H3; read-out: SPR KD—37° C., 37° C. flow cell temperature) was 0.001 to 0.01 µM, the “Resolution [Å]” value (4lg-B7-H3; complex crystals of 4lg-B7-H3 with ligand, parenthesis = highest resolution bin) was 2.98 (3.28-2.98) Å and the “specific hydrogen bonds to 4lg-B7-H3” value (4lg-B7-H3; distance of less than 3.5 Å of donor and acceptor atoms) was “eleven”. The “ligand binding site in 4lg-B7-H3” value (4lg-B7-H3; extracellular domain residues 29-456) was “bound between the Ig-like C2-type 1 and Ig-like V-type 2 domains”.

B1: Cpd 269 (peptide)
peptide: Ac-[hLeu]YCIGK(DOTA)[4Pal]DVYC[Trp(5-F)]F[Pip]-NH2
modifications: disulfide 3-11
B1 was tested, and the KD [3] was 0.01 to 0.1 µM.

B2: Cpd 28 (peptide)
peptide: Ac-[Nle]YCVGKYDVYCWFT[dK](DOTA)-OH
modifications: disulfide 3-11
SMILES: CCCC[C@H](NC(C)=O)C(=O)N[C@@H](Cc1ccc(O)cc1)C(=O)N[C@H]1CSSC[C@@H](C(=O)N[C@@H](Cc2c[nH]c3ccccc23)C(=O)N[C@@H](Cc2ccccc2)C(=O)N[C@H](C(=O)N[C@H](CCCCNC(=O)CN2CCN(CC(=O)O)CCN(CC(=O)O)CCN(CC(=O)O)CC2)C(=O)O)[C@@H](C)O)NC(=O)[C@H](Cc2ccc(O)cc2)NC(=O)[C@H](C(C)C)NC(=O)[C@H](CC(=O)O)NC(=O)[C@H](Cc2ccc(O)cc2)NC(=O)[C@H](CCCCN)NC(=O)CNC(=O)[C@H](C(C)C)NC1=O
B2 was tested, and the KD [4] was 0.001 to 0.01 µM and the KD [5] was 0.001 to 0.01 µM.

B3: Cpd 310 (peptide)
peptide: Ac-[hLeu]YC[Tle]GK[Ala(4-THP)]DVYC[Trp(5-F)]F[Val(3-OH)][dK]([PEG4′-DOTA])-OH
modifications: disulfide 3-11 (inferred)
With B3 the % cell associated fraction [6] was over 50%, the KD [7] was under 0.001 µM and the KD [8] was under 0.001 µM.

B4: Cpd 27 (peptide)
peptide: Ac-[Nle]YCVGKYDVYCWFT[dK](DOTA)-NH2
modifications: disulfide 3-11
B4 was tested, and the KD [4] was 0.001 to 0.01 µM and the KD [5] was 0.001 to 0.01 µM.

B5: Cpd 36 (peptide)
peptide: Ac-[Nle]YCVGKYDVYCWF[γGlu][γGlu]-NH2
modifications: disulfide 3-11
SMILES: CCCC[C@H](NC(C)=O)C(=O)N[C@@H](Cc1ccc(O)cc1)C(=O)N[C@H]1CSSC[C@@H](C(=O)N[C@@H](Cc2c[nH]c3ccccc23)C(=O)N[C@@H](Cc2ccccc2)C(=O)N[C@@H](CCC(=O)N[C@@H](CCC(N)=O)C(=O)O)C(=O)O)NC(=O)[C@H](Cc2ccc(O)cc2)NC(=O)[C@H](C(C)C)NC(=O)[C@H](CC(=O)O)NC(=O)[C@H](Cc2ccc(O)cc2)NC(=O)[C@H](CCCCN)NC(=O)CNC(=O)[C@H](C(C)C)NC1=O
For B5, the KD [9] was 0.1 to 0.3 µM.

B6: Cpd 267 (peptide)
peptide: Ac-[hLeu]YCIGK(DOTA)[4Pal]DVYC[Trp(5-F)]F[Hyp]-NH2
modifications: disulfide 3-11
With B6 the KD [3] was 0.01 to 0.1 µM.

B7: Cpd 523 (peptide)
peptide: Ac-[hLeu]YC[Tle]G[PipAla]K([PEG4′-DPTA])DVYC[Trp(5-F)][(2S,3S)beta‑Me‑Phe][Val(3-OH)][dA]-OH
modifications: disulfide 3-11 (inferred)
In the case of B7, the Kd (2Ig B7-H3) is reported as 0.52 µM and the KD [8] is reported as under 0.001 µM.

B8: Cpd 494 (peptide)
peptide: Ac-[hLeu]YC[Tle]G[PipAla]([PEG4′-DOTA])[Ala(4-THP)]DVYC[Trp(5-F)][(2S,3S)βMePhe][Val(3-OH)][dA]-OH
modifications: disulfide 3-11 (inferred)
Molecule B8 has a Kd (2Ig B7-H3) of 0.37 µM, a % cell associated fraction [6] of over 50% and a KD [8] of under 0.001 µM.

B9: Cpd 303 (peptide)
peptide: Ac-[hLeu]YC[Tle]GK[Ala(4-THP)]DVYC[Trp(5-F)]F[Val(3-OH)][dK](DOTA)-OH
modifications: disulfide 3-11 (inferred)
B9 gave a % cell associated fraction [6] of over 50%, a KD [7] of under 0.001 µM and a KD [8] of under 0.001 µM.
